We go through four substances from US10232020B2, “Incretin-insulin conjugates” (priority 2014, dated 2019).

Data set [1] addresses insulin subtype A receptor (Homo sapiens, UniProt P06213). Description: In vitro activity at insulin subtype A receptor. Type of data set: cell-based. Particulars: FIG. 1A.
The target in data set [2] is T1, insulin receptor (IR-B) (Homo sapiens, UniProt P06213).
T1 construct: expressed in transfected cells
The data set is described as follows: In vitro activity at insulin B receptor (IR-B). Type of data set: cell-based. Particulars: FIG. 1B. Here is the method:
Color development was stopped 5 min later by adding 0.05 ml 1 N HCl. Absorbance at 450 nm was measured on Titertek Multiscan MCC340 (ThermoFisher, Pittsburgh, Pa.). […] Structures associated with the abbreviated lipidated groups designated in Table 4 are as follows: […]

Data set [3] is described as follows: Dose titration on food intake and blood glucose (FIGS. 20-25). Type of data set: in vivo.
Data set [4] concerns GPL-1 receptor knock out mice. The data set is described as follows: Glucose tolerance test and food intake in GLP-1 receptor knock out mice. It is filed as in vivo. Particulars: GLP-1 knock out mice; 3 nmol/kg; FIG. 28. The source says:
FIG. 26 is a graph of a glucose tolerance test conducted on wild type mice (solid lines) and on GPL-1 receptor knock out mice (dashed lines).

Data set [5] addresses T2, GIP receptor (Homo sapiens, UniProt P48546).
T2 construct: expressed in transfected cells; host or cells: HEK293
T2 sequence (P48546 22-466): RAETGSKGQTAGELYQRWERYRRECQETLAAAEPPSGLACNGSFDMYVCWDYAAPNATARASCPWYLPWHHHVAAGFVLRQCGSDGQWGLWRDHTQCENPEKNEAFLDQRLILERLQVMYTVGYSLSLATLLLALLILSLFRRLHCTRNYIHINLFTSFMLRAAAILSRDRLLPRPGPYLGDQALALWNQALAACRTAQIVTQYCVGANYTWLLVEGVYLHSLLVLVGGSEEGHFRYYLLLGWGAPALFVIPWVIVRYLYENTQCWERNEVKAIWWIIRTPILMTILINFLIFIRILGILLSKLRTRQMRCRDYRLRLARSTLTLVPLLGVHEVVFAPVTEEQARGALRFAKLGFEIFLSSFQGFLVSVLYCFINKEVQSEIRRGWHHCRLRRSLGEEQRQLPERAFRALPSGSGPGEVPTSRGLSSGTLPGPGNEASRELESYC
The following applies: general statement; cited from earlier work.

The conditions of data set [6]: particularly at physiological pH; cited from earlier work.
Data set [7] relates to normal mice. Description: Blood glucose after single administration to normal mice. It is filed as in vivo. Particulars: 50 nmoles/kg, FIG. 8. Here is the method: Six- to eight-week-old male C57BL/6 mice were maintained at 23° C., constant humidity, and a 12-h light-dark cycle. The acute in vivo effects of select peptides were evaluated by subcutaneously injecting peptides solubilized in physiologically buffered saline or a vehicle control to normal or diabetic mice. Blood glucose was measured at various time points through the course of a 24 hr period following administration of the peptides. Each group of mice contained 8 animals per group. The average body weight was ˜25 g. Mice were made diabetic by administration of streptozotocin.

Non-standard residues stand in square brackets, D forms with d. No end group written: not given here. Aib = CC(C)(N)C(=O)O

Take “GLP-DP8: GLP-1/insulin fusion, SEQ ID NO: 700; GLP-1 agonist peptide fused to the N-terminus of a single chain insulin analog (HAEGTFTSDVSSYLEEQAAREFIAWLVRGRG; GLP-1 analog)”: in data set [1], the “potency at the A receptor” value is reported as “about 2.07 nanomoles”. In addition, the “potency at the insulin B receptor” value in data set [2] was “about 9.9 nanomoles”.
In the case of “CIU-093: XEGTFTSDUSIYLDKQAAXEFVNWLLAGGPSSGAPPPS (SEQ ID NO: 1996); C(S-S)—CH2CH2CH2-B^1 Insulin”, the food intake entry in data set [3] (FIG. 22) is reported as “does not suppress food intake”; in data set [4], “no reduction in food intake”. In addition, the blood glucose entry in data set [3] (FIG. 25) is “a much higher dosage is required to get the same glucose lowering”.
With “Native glucagon: peptide consisting of the sequence of SEQ ID NO: 701”, in data set [5], the “activation of the GIP receptor” value is “does not activate the GIP receptor”. The “solubility in aqueous solution” value in data set [6] was “poor solubility in aqueous solution”.
“IUB-48: GLP-1 agonist, HXEGTFTSDVSSYLEEQAAKEFIAWLVKGGPSSGAPPPS (SEQ ID NO: 1932) (H[Aib]EGTFTSDVSSYLEEQAAKEFIAWLVKGGPSSGAPPPS)”: in data set [7], the blood glucose levels entry is given as “about 60 mg/dL”.
